In FireProtDB:
Values joined by “and” are separate entries in the source; they are usually repeats but may differ in a detail not shown here. Identical values can stand only once.

Details: whole UniProt chain shown
[1] = Thermus thermophilus (strain ATCC 27634 / DSM 579 / HB8), pH 5.5, 25 °C, Urea, CD, NaOAc 20 mM, KCl 50 mM, reversible: yes
[2] = Thermus thermophilus (strain ATCC 27634 / DSM 579 / HB8), pH 5.5, Thermal, CD, Sodium acetate 5 mM, KCl 50 mM, reversible: yes
[3] = Staphylococcus aureus, pH 7, Thermal, CD, NaPP 0.1 M, reversible: yes
[4] = Staphylococcus aureus, pH 7, Thermal, Fluorescence, NaPP 0.1 M, reversible: yes
[5] = Streptococcus phage Cp-1, pH 7, Thermal, DSC, phosphate 20 mM, reversible: no
[6] = Streptococcus phage Cp-1, pH 7, Thermal, DSC, phosphate 20 mM, transition: 3, reversible: no
[7] = Thermotoga maritima (strain ATCC 43589 / DSM 3109 / JCM 10099 / NBRC 100826 / MSB8), pH 6, 29 °C, Thermal, CD, sodium phosphate 50 mM, reversible: yes

B1: Ribonuclease H wild type, P29253 (protein)
chain: MNPSPRKRVALFTDGACLGNPGPGGWAALLRFHAHEKLLSGGEACTTNNRMELKAAIEGLKALKEPCEVDLYTDSHYLKKAFTEGWLEGWRKRGWRTAEGKPVKNRDLWEALLLAMAPHRVRFHFVKGHTGHPENERVDREARRQAQSQAKTPCPPRAPTLFHEEA
- denaturant m value [1]: 2 kcal/mol/M
- unfolding free energy [1]: 53.6 kJ/mol
- Tm [2]: 86 °C
- heat capacity change of unfolding [2]: 1.8 kcal/mol/K
- unfolding enthalpy (van 't Hoff) [2]: 548 kJ/mol

B2: Dihydroneopterin aldolase wild type, P56740 (protein)
chain: MQDTIFLKGMRFYGYHGALSAENEIGQIFKVDVTLKVDLSEAGRTDNVIDTVHYGEVFEEVKSIMEGKAVNLLEHLAERIANRINSQYNRVMETKVRITKENPPIPGHYDGVGIEIVRENK
- Tm [3]: 42.5 °C
- unfolding enthalpy (van 't Hoff) [3]: 590 kJ/mol
- Tm [4]: 43.5 °C
- unfolding enthalpy (van 't Hoff) [4]: 630 kJ/mol

B3: Lysozyme wild type, P15057 (protein)
chain: MVKKNDLFVDVSSHNGYDITGILEQMGTTNTIIKISESTTYLNPCLSAQVEQSNPIGFYHFARFGGDVAEAEREAQFFLDNVPMQVKYLVLDYEDDPSGDAQANTNACLRFMQMIADAGYKPIYYSYKPFTHDNVDYQQILAQFPNSLWIAGYGLNDGTANFEYFPSMDGIRWWQYSSNPFDKNIVLLDDEEDDKPKTAGTWKQDSKGWWFRRNNGSFPYNKWEKIGGVWYYFDSKGYCLTSEWLKDNEKWYYLKDNGAMATGWVLVGSEWYYMDDSGAMVTGWVKYKNNWYYMTNERGNMVSNEFIKSGKGWYFMNTNGELADNPSFTKEPDGLITVA
- Tm [5]: 42.9 °C
- unfolding enthalpy (calorimetric) [5]: 456 kJ/mol
- unfolding enthalpy (van 't Hoff) [5]: 970 kJ/mol
- Tm [6]: 43.5 °C
- unfolding enthalpy (calorimetric) [6]: 598 kJ/mol
- unfolding enthalpy (van 't Hoff) [6]: 418 kJ/mol

B4: Elongation factor Ts wild type, P43895 (protein)
chain: MSQMELIKKLREATGAGMMDVKRALEDAGWDEEKAVQLLRERGAMKAAKKADREAREGIIGHYIHHNQRVGVLVELNCETDFVARNELFQNLAKDLAMHIAMMNPRYVSAEEIPAEELEKERQIYIQAALNEGKPQQIAEKIAEGRLKKYLEEVVLLEQPFVKDDKVKVKELIQQAIAKIGENIVVRRFCRFELGA
- Tm (Thermus thermophilus (strain ATCC 27634 / DSM 579 / HB8), pH 7, Thermal, CD, Phosphate 10 mM, reversible: No): 115 °C

B5: Dihydrofolate reductase wild type, Q60034 (protein)
chain: MAKVIFVLAMDVSGKIASSVESWSSFEDRKNFRKITTEIGNVVMGRITFEEIGRPLPERLNVVLTRRPKTSNNPSLVFFNGSPADVVKFLEGKGYERVAVIGGKTVFTEFLREKLVDELFVTVEPYVFGKGIPFFDEFEGYFPLKLLEMRRLNERGTLFLKYSVEKSHR
- denaturant m value (Thermotoga maritima (strain ATCC 43589 / DSM 3109 / JCM 10099 / NBRC 100826 / MSB8), pH 7.8, 5 °C, GdnHCl, CD, Potassium phosphate 10 mM, reversible: yes): 13.2 kcal/mol/M
- denaturant m value (Thermotoga maritima (strain ATCC 43589 / DSM 3109 / JCM 10099 / NBRC 100826 / MSB8), pH 7.8, 15 °C, GdnHCl, CD, Potassium phosphate 10 mM, reversible: yes): 9.4 kcal/mol/M
- denaturant m value (Thermotoga maritima (strain ATCC 43589 / DSM 3109 / JCM 10099 / NBRC 100826 / MSB8), pH 7.8, 15 °C, Urea, CD, Potassium phosphate 10 mM, reversible: yes): 4.71 kcal/mol/M
- denaturant m value (Thermotoga maritima (strain ATCC 43589 / DSM 3109 / JCM 10099 / NBRC 100826 / MSB8), pH 7.8, 25 °C, GdnHCl, CD, Potassium phosphate 10 mM, reversible: yes): 7.15 kcal/mol/M
- denaturant m value (Thermotoga maritima (strain ATCC 43589 / DSM 3109 / JCM 10099 / NBRC 100826 / MSB8), pH 7.8, 37 °C, GdnHCl, CD, Potassium phosphate 10 mM, reversible: yes): 5.98 kcal/mol/M
- denaturant m value (Thermotoga maritima (strain ATCC 43589 / DSM 3109 / JCM 10099 / NBRC 100826 / MSB8), pH 7.8, 55 °C, GdnHCl, CD, Potassium phosphate 10 mM, reversible: yes): 6.24 kcal/mol/M
- denaturant m value (Thermotoga maritima (strain ATCC 43589 / DSM 3109 / JCM 10099 / NBRC 100826 / MSB8), pH 7.8, 70 °C, GdnHCl, CD, Potassium phosphate 10 mM, reversible: yes): 7.56 kcal/mol/M

B6: Glutathione S-transferase P wild type, P80031 (protein)
chain: PPYTITYFPVRGRCEAMRMLLADQDQSWKEEVVTMETWPPLKPSCLFRQLPKFQDGDLTLYQSNAILRHLGRSFGLYGKDQKEAALVDMVNDGVEDLRCKYATLIYTNYEAGKEKYVKELPEHLKPFETLLSQNQGGQAFVVGSQISFADYNLLDLLRIHQVLNPSCLDAFPLLSAYVARLSARPKIKAFLASPEHVNRPINGNGKN
- unfolding free energy (Sus scrofa, pH 6.5, 20 °C, GdnHCl, CD, Mes-NaOH 20 mM, NaCl 0.1 M): 48.5 kJ/mol and 94.1 kJ/mol

B7: Inorganic pyrophosphatase wild type, P38576 (protein)
chain: MANLKSLPVGDKAPEVVHMVIEVPRGSGNKYEYDPDLGAIKLDRVLPGAQFYPGDYGFIPSTLAEDGDPLDGLVLSTYPLLPGVVVEVRVVGLLLMEDEKGGDAKVIGVVAEDQRLDHIQDIGDVPEGVKQEIQHFFETYKALEAKKGKWVKVTGWRDRKAALEEVRACIARYKG
- Tm (Thermus thermophilus (strain ATCC 27634 / DSM 579 / HB8), pH 7, Thermal, CD, HEPES 20 mM, MgCl2 5 mM): 99 °C
- Tm (Thermus thermophilus (strain ATCC 27634 / DSM 579 / HB8), pH 7, Thermal, CD, HEPES 20 mM): 86 °C

B8: Chemotaxis protein CheY wild type, Q56312 (protein)
chain: MGKRVLIVDDAAFMRMMLKDIITKAGYEVAGEATNGREAVEKYKELKPDIVTMDITMPEMNGIDAIKEIMKIDPNAKIIVCSAMGQQAMVIEAIKAGAKDFIVKPFQPSRVVEALNKVSK
- heat capacity change of unfolding [7]: 1.17 kcal/mol/K
- unfolding free energy [7]: 39.9 kJ/mol
- Tm (Thermotoga maritima (strain ATCC 43589 / DSM 3109 / JCM 10099 / NBRC 100826 / MSB8), pH 6, Thermal, CD, sodium phosphate 50 mM, reversible: yes): 101 °C
